# PMC10615762
# Target: prefusion-stabilized SARS-CoV-2 spike protein (S-clamp) (SARS-CoV-2)
# Test: SEC
substance,measurement,value
prefusion-stabilized SARS-CoV-2 spike protein (S-clamp),stoichiometry N,3
